Substitutions are numbered along the chain they refer to.
T1: human E-selectin, cell-surface expressed (human, UniProt P16581 22-610)
T1 sequence: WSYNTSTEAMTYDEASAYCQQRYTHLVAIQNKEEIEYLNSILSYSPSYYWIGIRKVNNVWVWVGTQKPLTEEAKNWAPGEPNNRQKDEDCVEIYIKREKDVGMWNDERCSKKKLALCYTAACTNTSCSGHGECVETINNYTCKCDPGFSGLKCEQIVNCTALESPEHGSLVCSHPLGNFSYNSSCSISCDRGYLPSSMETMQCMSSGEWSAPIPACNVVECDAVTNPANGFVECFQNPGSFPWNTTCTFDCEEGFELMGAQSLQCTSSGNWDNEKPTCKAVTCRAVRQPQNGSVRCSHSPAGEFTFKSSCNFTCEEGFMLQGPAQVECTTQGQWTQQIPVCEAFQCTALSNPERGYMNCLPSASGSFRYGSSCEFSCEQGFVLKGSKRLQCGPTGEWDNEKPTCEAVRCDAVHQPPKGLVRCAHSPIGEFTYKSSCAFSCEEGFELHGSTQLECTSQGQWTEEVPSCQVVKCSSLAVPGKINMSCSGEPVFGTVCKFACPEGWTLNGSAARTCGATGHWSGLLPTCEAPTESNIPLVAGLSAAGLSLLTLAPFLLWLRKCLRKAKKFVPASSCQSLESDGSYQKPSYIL

T2: free soluble human E-selectin in human serum (human, UniProt P16581 22-556, limits assumed)
T2 construct: also called endogenous human E-selectin
T2 sequence (looked up): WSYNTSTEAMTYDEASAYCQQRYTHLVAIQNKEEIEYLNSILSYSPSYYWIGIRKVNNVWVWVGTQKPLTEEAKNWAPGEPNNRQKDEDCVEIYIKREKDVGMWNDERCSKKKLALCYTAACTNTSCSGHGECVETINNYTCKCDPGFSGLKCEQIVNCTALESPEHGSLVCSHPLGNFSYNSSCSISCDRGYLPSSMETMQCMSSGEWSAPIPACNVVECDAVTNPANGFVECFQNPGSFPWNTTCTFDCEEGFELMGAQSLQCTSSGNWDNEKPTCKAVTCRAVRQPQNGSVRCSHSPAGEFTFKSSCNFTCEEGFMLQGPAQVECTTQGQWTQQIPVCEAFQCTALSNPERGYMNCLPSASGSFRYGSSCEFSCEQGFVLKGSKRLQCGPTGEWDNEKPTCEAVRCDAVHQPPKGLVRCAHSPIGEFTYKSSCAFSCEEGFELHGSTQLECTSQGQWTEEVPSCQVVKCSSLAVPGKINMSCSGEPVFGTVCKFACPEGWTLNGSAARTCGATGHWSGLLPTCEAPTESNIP

T3: recombinant histidine-tagged human E-selectin (Sino Biologicals; 13025-H08H) (human, UniProt P16581 22-556)
T3 construct: also called recombinant human E-selectin; soluble recombinant human E-selectin
T3 sequence (looked up): T2 sequence (looked up)

B1: optimized anti-E-selectin antibody 1282 (antibody, human IgG1, kappa, V domains shown)
VH: EVQLVESGGGLVQPGGSLRLSCAASGYAIRSAYMHWVRQAPGKGLEWVARIDPANGNTIYVDSVEGRFTISADNAKNSAYLQMNSLRAEDTAVYYCAMDLYSTSEYWGQGTLVTVSS
VL: DIQMTQSPSSLSASVGDRVTITCKTSQNIERYLNWYQQKPGKAPKLLIYAASSLQSGVPSRFSGSGSGTDFTLTISSLQPEDFATYFCLQDNAWPLTFGQGTKVEIKR
notes: effector-null human IgG1, kappa
B2: optimized anti-E-selectin antibody 1284 (antibody, human IgG1, kappa, V domains shown)
VH: B1 VH with D62E
VL: B1 VL
notes: as for B1
B3: optimized anti-E-selectin antibody 1448 (antibody, human IgG1, kappa, V domains shown)
VH: B1 VH with E65K, G66E
VL: B1 VL
notes: as for B1
B4: optimized anti-E-selectin antibody 1444 (antibody, human IgG1, kappa, V domains shown)
VH: B1 VH with E65T
VL: B1 VL
notes: as for B1
B5: anti-E-selectin antibody 0164 chimera (antibody, human IgG1, kappa, V domains shown)
VH: EVQLQQSGAEFGKPGTSVKLSCKVSGYNIRSSYMHWVNQRPGKGLEWIGRIDPANGNTIYAEKFKIKAILTADSSSNTAYMQLSQLKSDDTAIYFCAMDLYSTSEYWGQGVMVTVSS
VL: DIQMTQSPSFLSASVGDRVTINCKTSQNINRYLNWYQQKLGEAPKLLIYNANSLQTGIPSRFSASGSGTDFTLTINSLQPEDVATYFCLQDNSWPLTFGSGTKLEIKR
notes: rat VH/VL on effector-null human IgG1 and human kappa

What follows are binders tested against T1, human E-selectin, cell-surface expressed (assay: cell-based or functional assay).

static neutralization of HL-60 cell adhesion, CHO-human E-selectin cells-IC50 [nM]	Binder
3.4	B1
4.4	B2
6.2	B3
4.7	B4
4.4	B5

What follows are binders tested against T2, free soluble human E-selectin in human … (assay: IP-LC/MS/MS of free soluble E-selectin in human serum, capture by biotinylated 0164).
Experimental: This method quantified free soluble human E-selectin in human serum or free soluble monkey E-selectin in cynomolgus monkey serum. The method used 50 μL of serum in 250 μL of PBS which was incubated overnight at 4° C. […] After incubation, 30 μL of Invitrogen T1 streptavidin magnetic beads were added to each sample followed by incubation for 40 minutes at room temperature (shaking at 1000 rpm). Using a Hamilton Microlabstar, the magnetic beads were then washed two times with PBS/0.05% Tween-20 followed by one wash with PBS. Soluble E-selectin was then eluted from the beads with 145 μL of 30 mM hydrochloric acid (HCl) and neutralized with 32 μL of 1 M Tris HCl, pH 8. Subsequently 50 fmol of stable isotope labeled (SIL) internal standard was added, followed by the addition of dithiothreitol (DTT, 10 μL×50 mM). After incubating 35 minutes at 60° C. the samples were allowed to cool to room temperature prior to the addition of iodoacetamide (IAA, 10 μL×100 mM). Samples were then placed in the dark for 30 minutes to which 1 μg of Promega LysC/trypsin (10 μL×100 […]) was added and then digested overnight at 37° C.
After overnight incubation, 50 μL of prepared sample was injected onto the nano ESILC-MS/MS.

IC50 [nM]	IC90 [nM]	Binder
2.4	4.9	B1
1.1	4.8	B2
1.8	8.6	B3
1.2	6.5	B4

The binders below were run against T3, recombinant histidine-tagged human … (assay: competition ELISA, His-tagged E-selectin on Ni-NTA plate vs HRP-conjugated sialyl Lewis A).
Experimental: Recombinant histidine-tagged E-selectin; cynomolgus monkey E-selectin (Sino Biologicals; 190169-C08H) and human E-selectin (Sino Biologicals; 13025-H08H) stock solutions were prepared to a final concentration of 3 μg/mL in phosphate buffered saline (PBS) without calcium and magnesium. One hundred μL per well of the diluted recombinant E-selectin protein was added into a Ni-NTA HisSorb 96 well plate (Qiagen, 35061) and plates were incubated on an orbital shaker at room temperature for 2 hours. Sialyl Lewis A polyacrylamide biotin, a synthetic E-selectin ligand (GlycoTech corporation 01-044), was conjugated to streptavidin HRP (horse radish peroxidase) (Ultra Streptavidin HRP, Thermo Scientific N504) and diluted in assay diluent containing 2 mM calcium chloride (BD OptEIA buffer; BD Biosciences, 555213).
Following the incubation, the plates were washed 5 times with 200 μL of wash buffer containing 2 mM of calcium chloride (50 mM TRIS [trisaminomethane]; 150 mM sodium chloride, 0.05% polysorbate 20, pH 7.4; 2 mM of calcium chloride). […] The final antibody concentration ranged from 200 nM to 0.09 nM and the final concentration of HRP conjugated Sialyl Lewis A was 5 μg/mL. Plates were washed as mentioned before, and 100 μL per well of 1-Step Ultra TMB substrate (Thermo Scientific, 34028) was added and incubated for 5 minutes at room temperature. Reactions were stopped with 100 μl of 2M sulfuric acid and absorbance read at 450 nm (Spectramax M5e). Data were analyzed and graphed using GraphPad Prism software (Version 8.0.2).

IC50 [nM]	Binder
3.39	B1
3.59	B2
2.96	B3
3.01	B4
3.39	B5
